Reference: publication PMC4655364, “HdeB chaperone activity is coupled to its intrinsic dynamic properties” (Scientific Reports, 2015)

Molecular target: the molecule itself
Assay: NMR backbone 15N relaxation (R2/R1, model-free analysis); pH 7.0, 5.0, 4.5 and 4.0; 25 °C, 800 MHz; 50 mM sodium phosphate, 45 mM citric acid

B1: E. coli HdeB (natural protein, UniProt P0AET2 30-108, looked up)
chain: ANESAKDMTCQEFIDLNPKAMTPVAWWMLHEETVYKGGDTVTLNETDLTQIPKVIEYCKKNPQKNLYTFKNQASNDLPN
notes: HdeB, periplasmic acid-resistant chaperone of E. coli; 79 residues; numbers count on: the mature protein, with the signal peptide excluded; Expressed from pET-28a(+); It speaks of 79 residues and numbers them on the mature protein; Samples were 15N- or 13C/15N-labelled; Each monomer has a Cys10-Cys58 disulfide bridge; also called HdeB dimer; HdeB homo-dimer; source: E. coli BL21(DE3)-T1R, …
- stoichiometry N: 2
